Assay results reported in paper PMC12216130, “Structural basis for the interaction between the bacterial cell division proteins FtsZ and ZapA” (Nature Communications, 2025).

Molecular target: the molecule itself
Assay: cryo-EM structure; 7.4 uM KpFtsZ, 14.9 uM KpZapA (2x molar excess), 0.6 mM GMPCPP, 17 mM HEPES pH 7.5, 8.6 mM NaCl, 60 mM KCl, 3 mM MgCl2, on ice 15 min; helical refinement to 2.73 A; same data re-analysed with the focus on ZapA (3.89 and 4.27 A maps, 2D classes)

| Protein | binding result | stoichiometry N |
| --- | --- | --- |
| K. pneumoniae FtsZ (natural protein, UniProt W9BCK7 1-383, looked up, polymerised into protofilaments with GMPCPP, GTP or GMPPNP in the assays; also called KpFtsZ; wild-type FtsZ) MFEPMELTNDAVIKVIGVGGGGGNAVEHMVRERIEGVEFFAVNTDAQALRKTAVGQTIQIGSGITKGLGAGANPEVGRNAADEDREALRAALDGADMVFIAAGMGGGTGTGAAPVVAEVAKDLGILTVAVVTKPFNFEGKKRMAFAEQGITELSKHVDSLITIPNDKLLKVLGRGISLLDAFGAANDVLKGAVQGIAELITRPGLMNVDFADVRTVMSEMGYAMMGSGVASGEDRAEEAAEMAISSPLLEDIDLSGARGVLVNITAGFDLRLDEFETVGNTIRAFASDNATVVIGTSLDPDMNDELRVTVVATGIGMDKRPEITLVTNKQVQQPVMDRYQQHGMSPLTQEQKPAAKVVNDNTPQTAKEPDYLDIPAFLRKQAD | binds | – |
| K. pneumoniae ZapA (natural protein, ZapA of Klebsiella pneumoniae; synthetic gene codon-optimised for E. coli in pColdI-TEV; Tetramer in the structures; also called KpZapA; source: E. coli, purified (HisTrap, TEV cleavage, second HisTrap, Superdex200 SEC); not shown: His6, N-terminal, cleaved) MSAQPVDLQIFGRSLRVNCPPEQRDALNQAAEDLNQRLQDLKERTRVTNTEQLVFIAALNISYELTQEKAKTRDYASSMEQRIRMLQQTIEQALLEQGRISE | – | 4 |
